Test results published in patent US20080207521A1, “PEPTIDE LIGAND TO IMPAIR CANCER CELL MIGRATION” (priority 2005, published 2008).
Blank lines part the entries; values can stand above or below the molecule they belong to.

Assays:
DDR1 = DDR1 phosphorylation in MDA-MB-468 cells (immunoprecipitation/Western blot); format: cell-based, human
Experimental: The phosphorylation status of DDR1 was analyzed as previously described (12), with the following modifications. After serum-depletion for 16 h, the cells were detached with Versene and then allowed to adhere to collagen I for 60 (MDA-MB-468) or 90 min (HB2) at 37° C. The experiments were terminated by lysing both adherent and non-adherent cells with a lysis buffer (50 mM Tris pH 7.4, 1% Triton-X, 5 mM EDTA, 5 mM EGTA, 50 mM NaCl, 10 μg/ml aprotinin, 2.5 mM benzamidine, 1 mM pefabloc, 1 μg/ml leupeptin and 1 mM Na3VO4). For immunoblotting an anti-DDR1 rabbit polyclonal Ab, sc-532 (Santa Cruz Biotech, Santa Cruz, Calif.) was used at a dilution of 1:10,000. The Ab recognizes DDR1b/c, which is essential because collagen only induces phosphorylation of the b or c isoforms of DDR1 in mammary epithelial cells (10).
Peptide-induced effects on adhesion and DDR1 phosphorylation in MDA-MB-468 breast cancer cells. (A) Western blot analysis of Wnt-5a protein expression in Wnt-5a antisense and Wnt-5a over-expressing HB2 cells in comparison to MDA-MB-468 tumour cells. […] The amounts of adhesive cells were analyzed as described in the methods and the results are given as means±SEM of 8 separate experiments. […] The amount of adherent cells was estimated as in panel A and expressed as means±SEM of 6 separate experiments, ns=not significant, ** p<0.01 and *** p<0.001. […]

Src kinase = target: T1, Src kinase (Homo sapiens, UniProt P12931); assay: Src activity in MDA-MB-468 cells (Western blot); format: cell-based; details: PP1 10 μM for last 30 min; with or without serum
T1 construct: Src activity in MDA-MB-468 cells in the absence and presence of PP1 and/or serum; endogenous in cells; host or cells: MDA-MB-468
Experimental: Western blot analysis was performed to evaluate the protein expressions of Wnt-5a, EGF-receptor, Src and Frz-2 and 5 in HB2 and MDA-MB-468 cells. […] The Wnt-5a Ab has been produced in the laboratory, as previously described (9, 10). The cells were lysed and boiled in two times concentrated Laemmli buffer. The protein content was determined in each sample and adjusted to ensure loading of equal amounts of protein in each lane, 50 mM DTT was then added and the lysates were boiled for 10 min, before separation by SDS gel electrophoresis. The proteins were subsequently transferred to PVDF membranes. The membranes were blocked in 3% BSA or 5% non-fat milk for 45 min, incubated with the primary Ab for 1 h (1:2,000 for Wnt-5a, 1:1,000 for activated EGF-receptor, total EGF-receptor, actin, active Src and total Src, and 1:5,000 for Frz-2 and Frz-5), and then for 1 h with a horseradish peroxidase conjugated secondary Ab. The Ab-antigen complex was detected using an enhanced chemiluminescence detection kit from Amersham Pharmacia Biotech (Uppsala, Sweden). In the case of re-probing, the membranes were stripped with a Reblot Strong solution from Chemicon International (Temecula, Calif.).
(A) Effect of pre-treatment (30 min) with the Src-inhibitor PP1 (10 μM) on adhesion induced DDR1 phosphorylation in MDA-MB-468 cells. The blots shown are representative of 3 separate experiments. […]

Frz-5 receptor [1] = target: T2, Frz-5 receptor (Homo sapiens, UniProt Q13467); assay: cell-based or functional assay
[2] = tested on: Wnt-5a antisense HB2 cells; assay: Migration of Wnt-5a antisense HB2 cells in modified Boyden chamber; format: cell-based, human; details: recombinant Wnt-5a 0.4 μg/ml; 18 h
Experimental: Cell migration analyses were performed in a modified Boyden chamber with a polycarbonate membrane (10 μm thick with a porous diameter of 8.0 μm) separating the two chambers (Transwell®; Costar, Cambridge, Mass.). As indicated in some experiments the membranes were coated with collagen by adding collagen-I (10 μg/ml) diluted in 0.25% acetic acid to the upper chamber for 1 h at 37° C., after which it was washed three times with PBS. Each experiment was initiated by detaching the cells by Versene treatment for 10-20 min at 37° C., washed, and re-suspended as a single cell suspension in serum-free DMEM medium supplemented with 0.5% BSA. Together with the indicated agonist a 0.2 ml cell suspension (containing 25,000 MDA-MB-468 or 50,000 HB2 cells) was then added to the upper chamber of the transwell. The lower chamber was filled with 0.6 ml serum-free but BSA-containing DMEM medium supplemented with 1 ng/ml of the chemoattractant IGF-I. As a control, IGF-I was excluded in some wells in each separate experiment. The cells were allowed to migrate in the Boyden chamber for 18 h at 37° C. in a humidified atmosphere of 95% air and 5% CO2. The experiments were terminated by removing the non-migratory cells with a cotton-tipped applicator from the upper surface of the membranes. The remaining cells on the lower surface that had migrated through the membrane were stained for 20 min with 0.5% crystal violet diluted in 20% methanol/80% water. After washing the membranes the number of stained cells per membrane and well was counted in an inverted microscope. The value from each separate experiment represents the median value of three individual wells.
Effects of the selected and pure peptides on the ability of Wnt-5a antisense HB2 cells to adhere and migrate. (A-E) The ability of the cells to adhere to collagen type I-coated wells was analyzed as previously described for FIG. 2 in the absence or presence of different concentrations of the indicated peptide. (F) Effect of the indicated peptides on migration of Wnt-5a antisense HB2 in a transwell migration assay. The cells were allowed to migrate for 18 h in the absence or presence of 100 μM peptide or 0.4 μg/ml of recombinant Wnt5a. The data are given as means±SEM of 6-7 separate experiments, each performed in triplicate. * p<0.05 and ** p<0.01.

Frz-5 receptor [3] = target: T2, Frz-5 receptor; assay: MDA-MB-468 cell migration with Frz-5 receptor blocking Ab or control anti-Frz-2 Ab; format: cell-based; design: endogenous in cells; host or cells: MDA-MB-468; details: recombinant Wnt-5a 0.4 μg/ml; Ab 5 μg/ml; 18 h
Experimental: The peptide […], corresponding to amino acids 198-217 in the ectodomain of the human Frz-5 receptor was as previously described used to generate a Frz-5 receptor blocking Ab (13). The peptide […], corresponding to amino acids 202-220 in the ectodomain of the human Frz-2 receptor, was used to generate a control anti-Frz-2 Ab. The synthesis of the peptides (the italic letters indicate the Frz-5 and Frz-2 sequences, the cysteine was added for raising and purifying the Ab) and the production of rabbit anti-Frz-5 and anti-Frz-2 antisera were managed by AgriSera (Vännäs, Sweden; permit A69-04 from Ume(a) animal ethic committe). The antisera were affinity purified in the laboratory by coupling the respective peptide antigen to Sulfolink Sepharose over which the respective antisera was then eluted.
Cell migration analyses were performed in a modified Boyden chamber with a polycarbonate membrane (10 μm thick with a porous diameter of 8.0 μm) separating the two chambers (Transwell®; Costar, Cambridge, Mass.). As indicated in some experiments the membranes were coated with collagen by adding collagen-I (10 μg/ml) diluted in 0.25% acetic acid to the upper chamber for 1 h at 37° C., after which it was washed three times with PBS. […] After washing the membranes the number of stained cells per membrane and well was counted in an inverted microscope. […]

T2 sequence (Q13467 27-585): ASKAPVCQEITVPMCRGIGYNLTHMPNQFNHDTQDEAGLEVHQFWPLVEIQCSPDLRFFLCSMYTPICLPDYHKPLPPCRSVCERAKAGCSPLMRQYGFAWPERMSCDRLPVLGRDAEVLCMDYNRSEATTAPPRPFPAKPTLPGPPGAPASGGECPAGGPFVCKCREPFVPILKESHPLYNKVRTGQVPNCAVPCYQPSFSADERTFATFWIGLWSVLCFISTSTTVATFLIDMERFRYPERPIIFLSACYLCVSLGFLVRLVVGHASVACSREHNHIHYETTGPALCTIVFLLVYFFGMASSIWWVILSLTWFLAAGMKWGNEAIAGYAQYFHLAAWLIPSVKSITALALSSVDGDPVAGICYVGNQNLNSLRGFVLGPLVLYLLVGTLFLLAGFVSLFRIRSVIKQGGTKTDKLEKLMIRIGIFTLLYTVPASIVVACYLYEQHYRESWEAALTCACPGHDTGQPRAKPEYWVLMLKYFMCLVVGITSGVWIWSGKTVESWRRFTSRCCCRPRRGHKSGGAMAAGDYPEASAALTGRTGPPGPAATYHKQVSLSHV
T1 sequence (P12931 whole entry): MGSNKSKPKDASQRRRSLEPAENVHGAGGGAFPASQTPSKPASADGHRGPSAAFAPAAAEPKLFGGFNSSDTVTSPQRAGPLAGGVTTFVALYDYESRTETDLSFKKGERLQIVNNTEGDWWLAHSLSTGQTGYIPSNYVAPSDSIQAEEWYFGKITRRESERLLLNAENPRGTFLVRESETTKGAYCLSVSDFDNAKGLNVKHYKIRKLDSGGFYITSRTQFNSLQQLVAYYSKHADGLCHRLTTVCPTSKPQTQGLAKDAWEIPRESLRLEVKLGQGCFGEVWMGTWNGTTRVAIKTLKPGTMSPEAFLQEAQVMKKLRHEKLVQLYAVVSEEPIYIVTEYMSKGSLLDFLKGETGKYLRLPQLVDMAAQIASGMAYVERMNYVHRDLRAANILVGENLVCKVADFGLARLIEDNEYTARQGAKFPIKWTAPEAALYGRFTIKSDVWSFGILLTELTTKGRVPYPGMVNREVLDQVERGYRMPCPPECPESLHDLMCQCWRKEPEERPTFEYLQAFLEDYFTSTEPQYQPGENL

Src kinase activity (Src kinase): abolished
Molecule: Cc1ccc(-c2nn(C(C)(C)C)c3ncnc(N)c23)cc1 [PP1, 4-amino-5-(4-methyl-phenyl)-7-(t-butyl)pyrozolo-D-3,4-pyrimidine, reference compound]
basal phosphorylation of DDR1 (DDR1; PP1 10 μM for 30 min): abolished the basal phosphorylation of DDR1

MDA-MB-468 cell adhesion to collagen I (Frz-5 receptor [1]): 15.7
Molecule: formylated tripeptide fMet-Leu-Phe

decrease in migration in presence of anti-Frz-5 or anti-Frz-2 Ab (Frz-5 receptor [3]): mediated via the Frz-5 receptor
B1: recombinant Wnt-5a: recombinant mouse Wnt-5a (R&D Systems) (protein)
chain: IIGAQPLCSQLAGLSQGQKKLCHLYQDHMQYIGEGAKTGIKECQYQFRHRRWNCSTVDNTSVFGRVMQIGSRETAFTYAVSAAGVVNAMSRACREGELSTCGCSRAARPKDLPRDWLWGGCGDNIDYGYRFAKEFVDARERERIHAKGSYESARILMNLHNNEAGRRTVYNLADVACKCHGVSGSCSLKTCWLQLADFRKVGDALKEKYDSAAAMRLNSRGKLVQVNSRFNSPTTQDLVYIDPSPDYCVRNESTGSLGTQGRLCNKTSEGMDGCELMCCGRGYDQFKTVQTERCHCKFHWCCYVKCKKCTEIVDQFVCK
modifications: left off: small tags and cut ends
migration [2]: effectively decreased the migration
level of DDR1 phosphorylation (DDR1; recombinant Wnt-5a 0.8 μg/ml, 60 min on collagen I): neither the pure peptides, CM nor recombinant Wnt-5a were able to further increase
